Assay results taken from patent publication US11952373B2, “Method of treating hypercytokinemia by administering the CCR5/CCL5 (RANTES) interaction inhibitor maraviroc” (priority 2020, dated 2024).
“Also recorded” adds a separate entry of the source.

What was measured:
IL-6 = experiment: Plasma cytokine/chemokine panel in critical COVID-19 patients, IL-6; type: in vivo, human; conditions: Day 7 post-leronlimab vs Day 0, critical COVID-19 patients
Description: (§1) To determine the extent and phenotype of “cytokine storm” cytokines and chemokines in critical COVID-19, a panel of 38 cytokines/chemokines was quantified in plasma from the ten critical COVID-19 patients at Day 0, Day 3 and Day 7 post-leronlimab therapy.

CCL5/RANTES = experiment: Plasma cytokine/chemokine panel in critical COVID-19 patients, CCL5/RANTES; type: in vivo, human
Description: as §1

[1] = system: CD8 and CD4 T-cells (PD-1, LAG-3, cleaved caspase 3); experiment: Immunophenotyping / high parameter flow cytometry of T-cells and exhaustion markers in critical COVID-19 patients; type: in vivo, human; conditions: for exhaustion markers (PD-1, LAG-3, cleaved caspase 3) on CD8 and CD4 T-cells: after 700 mg leronlimab, all ten patients
[2] = system: critically ill patients with COVID-19; experiment: Clinical outcome of critically ill COVID-19 patients given leronlimab; type: in vivo, human; conditions: by Day 14, 10 critically ill COVID-19 patients
CCR5 = CCR5 (Homo sapiens, UniProt P51681); conditions: day 7, all ten critical COVID-19 patients, 700 mg leronlimab
Chain of CCR5 (P51681 whole entry): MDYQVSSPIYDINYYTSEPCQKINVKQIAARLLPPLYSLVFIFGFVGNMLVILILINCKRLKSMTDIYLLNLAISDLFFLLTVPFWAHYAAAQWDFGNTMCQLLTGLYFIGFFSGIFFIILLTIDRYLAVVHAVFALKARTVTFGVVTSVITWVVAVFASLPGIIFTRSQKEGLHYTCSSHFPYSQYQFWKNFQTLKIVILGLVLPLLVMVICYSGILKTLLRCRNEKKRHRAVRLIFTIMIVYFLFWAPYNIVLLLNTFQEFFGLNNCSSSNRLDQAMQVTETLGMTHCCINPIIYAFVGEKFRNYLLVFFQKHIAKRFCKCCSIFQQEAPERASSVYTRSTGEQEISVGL

B1: leronlimab: a humanized monoclonal antibody directed against CCR5 (antibody, chains of the INN, looked up, V domains shown)
VH: EVQLVESGGGLVKPGGSLRLSCAASGYTFSNYWIGWVRQAPGKGLEWIGDIYPGGNYIRNNEKFKDKTTLSADTSKNTAYLQMNSLKTEDTAVYYCGSSFGSNYVFAWFTYWGQGTLVTVSS
VL: DIVMTQSPLSLPVTPGEPASISCRSSQRLLSSYGHTYLHWYLQKPGQSPQLLIYEVSNRFSGVPDRFSGSGSGTDFTLKISRVEAEDVGVYYCSQSTHVPLTFGQGTKVEIK
IL-6
  plasma IL-6 level change: reduces IL-6; also recorded: significantly decreased; also recorded: dropped dramatically
CCL5/RANTES; Day 7 post-leronlimab, critical COVID-19 patients
  plasma CCL5/RANTES level change: remained high; also recorded: did not drop as abruptly
CCL5/RANTES; Day 14, patients where data was available
  plasma CCL5/RANTES level change: initiation of a drop
[1]
  exhaustion markers (PD-1, LAG-3, cleaved caspase 3) on CD8 and CD4 T-cells: improvement in exhaustion markers
[1]; listed as Leronlimab
  exhaustion markers (PD-1, LAG-3, cleaved caspase 3) on CD8 and CD4 T-cells: improvements in exhaustion markers
[1]; all patients
  immune restoration including T-cell numbers: immune restoration
[1]; as little as 3 days post-therapy
  T-cell level and CD4/CD8 ratio: begins to restore T-cell level and correct the gross alteration of CD4/CD8 ratio
[1]; by Day 7 after 700 mg leronlimab
  immune profile compared to normal control blood: resembled the normal control blood
[1]; following 7 days of leronlimab, compared to Day 0
  expression of PD-1 and LAG3 on T-cells: significantly decreases
[2]
  patients extubated and released: 4
  patients surviving: six out of 10
CCR5
  blockade of CCR5 as determined by receptor occupancy: ~100%
